Laboratory results reported in US20190233485A1 (LEIDEN UNIVERSITY MEDICAL CENTER, published 2019).

Legend:
[1] = molecular target: T1, Bob1 (B cell Oct binding protein 1, gene POU2AF1) peptide on HLA-A*02:01 (human); test: multimer staining
T1 peptide: YALNHTLSV

[2] = molecular target: T2, HLA-B*0702 (human); test: polypeptides eluted from HLA of HLA-typed EBV-LCLs (HLA elution database); allele as in Table 1
T2 construct: HLA class I molecule on HLA-typed EBV-LCLs from which the polypeptides were eluted; also called HLA-B7

[3] = molecular target: T3, HLA-A*0201 (human); test: as above
T3 construct: HLA class I molecule on HLA-typed EBV-LCLs from which the polypeptides were eluted; also called HLA-A2

[4] = molecular target: T4, Bob1 (B cell Oct binding protein 1, gene POU2AF1) peptide on HLA-B*07:02 (human); test: multimer staining
T4 peptide: APAPTAVVL

B1: TCR of T cell clone 3C10 (TCR, V domains shown)
Valpha: GENVEQHPSTLSVQEGDSAVIKCTYSDSASNYFPWYKQELGKGPQLIIDIRSNVGEKKDQRIAVTLNKTAKHFSLHITETQPEDSAVYFCAASTGGGYSTLTFGKGTMLLVSP
Vbeta: DAGVIQSPRHEVTEMGQEVTLRCKPISGHDYLFWYRQTMMRGLELLIYFNNNVPIDDSGMPEDRFSAKMPNASFSTLKIQPSEPRDSAVYFCASSGQGITLAGANVLTFGAGSRLTVL
**Q.** Does B1 bind [1]?
**A.** recognises

B2: BOB1197 peptide APALPGPQF (peptide)
peptide: APALPGPQF
notes: Bob1-derived peptide from the HLA elution set
**Q.** Does B2 bind [2]?
**A.** binds

B3: BOB144 peptide APAPTAVVL (peptide)
peptide: APAPTAVVL
notes: as for B2
**Q.** Does B3 bind [2]?
**A.** binds

B4: BOB114 peptide APARPYQGV (peptide)
peptide: APARPYQGV
notes: as for B2
**Q.** Does B4 bind [2]?
**A.** binds

B5: BOB1245 peptide YALNHTLSV (peptide)
peptide: YALNHTLSV
notes: as for B2
**Q.** Does B5 bind [3]?
**A.** binds

B6: TCR of T cell clone 4G11 (TCR-4G11) (TCR, V domains shown)
Valpha: GENVEQHPSTLSVQEGDSAVIKCTYSDSASNYFPWYKQELGKGPQLIIDIRSNVGEKKDQRIAVTLNKTAKHFSLHITETQPEDSAVYFCAASKGSSNTGKLIFGQGTTLQVKP
Vbeta: DTEVTQTPKHLVMGMTNKKSLKCEQHMGHRAMYWYKQKAKKPPELMFVYSYEKLSINESVPSRFSPECPNSSLLNLHLHALQPEDSALYLCASSHGPASYEQYFGPGTRLTVT
**Q.** Does B6 bind [4]?
**A.** recognises
